The text below walks through data of the supplement of paper PMC10126150.

The subject of the data set is ATP. The data set can be described thus: switch fluorescence ratio, 500 uM ATP over buffer (Cy3 cluster intensity, sum of 5 cycles each) (fold (ratio)); higher = stronger signal-on switching upon ATP binding; sequences stand for … in TCGTCGGCAGCGTCAGATGTGTATAAGAGACAGTTTTTTTTTTTTTTTTTTTTTTTTT…TC. The settings on record: aptamer strand: ATP DNA aptamer (quencher-CACCTGGGGGAGTATTGCGGAGGAAGG + anchor), 100 nM annealed; ATP concentration: 500 uM. A digest of the protocol:
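Exposure to 500 uM ATP lasted 15 min at 22 °C before imaging, and a selection-buffer image was taken beforehand, for Cy3-labelled switching-strand clusters on a modified Illumina MiSeq flow-cell annealed to 100 nM quencher-labelled ATP aptamer. Five buffer/ATP cycles were run with NaOH stripping and re-annealing between them. The fluorescence ratio per cluster is summed target-cycle over summed buffer-cycle Cy3 intensity, averaged per switch-domain sequence. Clusters outside 100-1000 RFU were excluded.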

± gives the standard deviation of the averaged measurements.

For TAATTGCCTT, the switch fluorescence ratio is 1.02 ± 0.017.

For the sequence TAATTGGAGG, the switch fluorescence ratio is 0.9805 ± 0.0051.

As for TAATTGGGGC, the switch fluorescence ratio is 1.02 ± 0.012.

TAATTGTAAT: the switch fluorescence ratio worked out at 1.04 ± 0.014.

For the sequence TAATTGTAGG, the switch fluorescence ratio came to 0.98 ± 0.032.

TAATTGTTTT: the switch fluorescence ratio was 1 ± 0.024.

For TAATTTACAG, the switch fluorescence ratio came out at 1 ± 0.03.

As for TAATTTACTA, the switch fluorescence ratio was 1.04 ± 0.03.

For the sequence TAATTTAGAA, the switch fluorescence ratio worked out at 0.975 ± 0.021.

As to TAATTTCGGG, the switch fluorescence ratio worked out at 0.986 ± 0.013.

As for TAATTTCTGT, the switch fluorescence ratio was 1.01 ± 0.024.

TAATTTGAAT: the switch fluorescence ratio was 1.028 ± 0.0063.

Consider TAATTTGGAA, for which the switch fluorescence ratio stood at 1.009 ± 0.0095.

As for TAATTTTGAG, the switch fluorescence ratio was 0.9957 ± 0.0029.

Turning to TAATTTTTG, the switch fluorescence ratio amounted to 0.9976 ± 0.0011.

On to TACAAACGGT, for which the switch fluorescence ratio is 1.17 ± 0.25.

Take TACAAGATGT: the switch fluorescence ratio was 1.01 ± 0.029.

Take TACAAGCTAA: the switch fluorescence ratio turned out to be 0.978 ± 0.032.

Take TACAAGTAT: the switch fluorescence ratio is 0.997 ± 0.028.

For the sequence TACAAGTCGA, the switch fluorescence ratio came out at 1.016 ± 0.0042.

As to TACAATCGCC, the switch fluorescence ratio is 1.06 ± 0.029.

In the case of TACACGGGTT, the switch fluorescence ratio came to 1.01 ± 0.035.

For the sequence TACAGAGATT, the switch fluorescence ratio came out at 0.9778 ± 0.0084.

TACAGATTGG: the switch fluorescence ratio came to 0.979 ± 0.025.

Consider TACAGGACTC, for which the switch fluorescence ratio stood at 1.09 ± 0.012.

Consider TACAGGCTCG, for which the switch fluorescence ratio was determined as 1.007 ± 0.01.

In the case of TACAGGGGGC, the switch fluorescence ratio turned out to be 1.12 ± 0.12.

Regarding TACAGGGGGT, the switch fluorescence ratio came out at 1.02 ± 0.062.

For TACAGTTGCG, the switch fluorescence ratio amounted to 1.02 ± 0.045.

On to TACATATCTT, for which the switch fluorescence ratio worked out at 1.01 ± 0.025.

On to TACATCCGAG, for which the switch fluorescence ratio is 1.08 ± 0.029.

As for TACATGGGTT, the switch fluorescence ratio was 1.01 ± 0.0092.

Take TACATGTTAG: the switch fluorescence ratio is 1.01 ± 0.024.

For TACCAATGGA, the switch fluorescence ratio amounted to 1.02 ± 0.04.

Take TACCAATTAA: the switch fluorescence ratio was 1.01 ± 0.026.

Consider TACCACGGGG, for which the switch fluorescence ratio came out at 1.04 ± 0.019.

As to TACCACTGCG, the switch fluorescence ratio came out at 1.04 ± 0.029.

Take TACCAGGGGT: the switch fluorescence ratio is 0.9909 ± 0.0039.

For TACCATTTTG, the switch fluorescence ratio turned out to be 1 ± 0.028.

Take TACCCGGGGT: the switch fluorescence ratio came to 0.9827 ± 0.0097.

Turning to TACCGGGGAG, the switch fluorescence ratio was determined as 1.021 ± 0.0045.

For the sequence TACCGTGGGG, the switch fluorescence ratio stood at 1.05 ± 0.038.

As to TACCTAGTTA, the switch fluorescence ratio is 1.03 ± 0.029.

For the sequence TACCTATGTT, the switch fluorescence ratio was found to be 0.979 ± 0.011.

As for TACCTCACTA, the switch fluorescence ratio turned out to be 1.42 ± 0.17.

For TACCTGGGGG, the switch fluorescence ratio was determined as 1.02 ± 0.03.

On to TACCTGGTTA, for which the switch fluorescence ratio is 0.999 ± 0.049.

Regarding TACCTTCGTT, the switch fluorescence ratio was determined as 1.04 ± 0.073.

As for TACGAAGGGT, the switch fluorescence ratio was 0.987 ± 0.009.

Regarding TACGAATCT, the switch fluorescence ratio is 1.03 ± 0.056.

For TACGAATGAG, the switch fluorescence ratio stood at 0.9854 ± 0.0057.

Take TACGAATGGG: the switch fluorescence ratio amounted to 1.01 ± 0.037.

In the case of TACGAGAGCC, the switch fluorescence ratio turned out to be 1.04 ± 0.037.

As to TACGAGCGAA, the switch fluorescence ratio is 1.34 ± 0.014.

On to TACGAGCTGA, for which the switch fluorescence ratio was 1.027 ± 0.0097.

TACGAGGGGG: the switch fluorescence ratio worked out at 1 ± 0.021.

On to TACGAGGTGT, for which the switch fluorescence ratio is 1.06 ± 0.027.

On to TACGAGGTTT, for which the switch fluorescence ratio worked out at 0.978 ± 0.03.

Turning to TACGATACAC, the switch fluorescence ratio is 1.44 ± 0.075.

Regarding TACGATAGGG, the switch fluorescence ratio was 1.21 ± 0.16.

Regarding TACGATATTT, the switch fluorescence ratio stood at 1.099 ± 0.0068.

Regarding TACGATGTGT, the switch fluorescence ratio turned out to be 1.03 ± 0.039.

As to TACGCCTGCA, the switch fluorescence ratio turned out to be 1.059 ± 0.0084.

Consider TACGGAGGGA, for which the switch fluorescence ratio came out at 1.08 ± 0.029.

TACGGCTGGT: the switch fluorescence ratio is 1.008 ± 0.0031.

For TACGGGAATG, the switch fluorescence ratio amounted to 1.02 ± 0.036.

Take TACGGGCTTA: the switch fluorescence ratio is 1.007 ± 0.0044.

TACGGGGATG: the switch fluorescence ratio is 0.9963 ± 0.0056.

Regarding TACGGGGCTG, the switch fluorescence ratio amounted to 1.01 ± 0.11.

TACGGGGGG: the switch fluorescence ratio is 1.02 ± 0.035.

Take TACGGGGGTT: the switch fluorescence ratio came out at 0.994 ± 0.011.

TACGGGGTCT: the switch fluorescence ratio amounted to 1.04 ± 0.037.

Take TACGGGTAAT: the switch fluorescence ratio worked out at 1.04 ± 0.019.

In the case of TACGGGTGTG, the switch fluorescence ratio is 1.016 ± 0.003.

Take TACGGTAGCT: the switch fluorescence ratio worked out at 1.12 ± 0.051.

Turning to TACGGTGAGG, the switch fluorescence ratio is 1.02 ± 0.011.

For the sequence TACGTAACAG, the switch fluorescence ratio was found to be 1.24 ± 0.064.

As to TACGTAGGTG, the switch fluorescence ratio came out at 1.04 ± 0.031.

For TACGTTAGTA, the switch fluorescence ratio turned out to be 1.02 ± 0.033.

TACGTTATGC: the switch fluorescence ratio was 1.27 ± 0.013.

Take TACGTTCCTG: the switch fluorescence ratio came to 1.03 ± 0.028.

For the sequence TACGTTGACC, the switch fluorescence ratio stood at 1.26 ± 0.016.

Regarding TACGTTTTAA, the switch fluorescence ratio amounted to 0.9938 ± 0.0087.

As for TACGTTTTTT, the switch fluorescence ratio turned out to be 1.05 ± 0.07.

With TACTAAGAAT, the switch fluorescence ratio was determined as 2.35 ± 1.9.

In the case of TACTAAGAGA, the switch fluorescence ratio was 1.03 ± 0.029.

For TACTAAGTAT, the switch fluorescence ratio was found to be 0.996 ± 0.069.

For TACTACTTCT, the switch fluorescence ratio came out at 1.02 ± 0.023.

As to TACTAGAAGA, the switch fluorescence ratio was 1.03 ± 0.039.

For TACTCACTGT, the switch fluorescence ratio was determined as 1.219 ± 0.0069.

Regarding TACTCAGGTT, the switch fluorescence ratio came out at 2.25 ± 1.8.

As to TACTCCGGTT, the switch fluorescence ratio amounted to 2.02 ± 0.19.

Regarding TACTGAGCAG, the switch fluorescence ratio is 1.019 ± 0.003.

Take TACTGAGCAT: the switch fluorescence ratio amounted to 1.24 ± 0.086.

In the case of TACTGCAGAT, the switch fluorescence ratio stood at 1.002 ± 0.0025.

Regarding TACTGCGGAA, the switch fluorescence ratio was 1.79 ± 1.2.

For the sequence TACTGGAGTA, the switch fluorescence ratio was 1.01 ± 0.018.

For TACTGGCTGC, the switch fluorescence ratio stood at 1.02 ± 0.0078.

For the sequence TACTGGGGGT, the switch fluorescence ratio worked out at 1.04 ± 0.074.

On to TACTGTGGTT, for which the switch fluorescence ratio was 1 ± 0.018.

For the sequence TACTTAGTGG, the switch fluorescence ratio stood at 1.02 ± 0.017.

Consider TACTTCAAGG, for which the switch fluorescence ratio was 1.02 ± 0.03.

TACTTCTCCA: the switch fluorescence ratio stood at 1.04 ± 0.016.

On to TACTTCTTTT, for which the switch fluorescence ratio came out at 0.958 ± 0.015.

Consider TACTTGAATT, for which the switch fluorescence ratio amounted to 1.02 ± 0.018.

Take TACTTGGACT: the switch fluorescence ratio is 1.06 ± 0.018.

On to TACTTGGCTT, for which the switch fluorescence ratio is 1.02 ± 0.031.

TACTTTAGCT: the switch fluorescence ratio was determined as 1.109 ± 0.0069.

As for TACTTTCGGT, the switch fluorescence ratio came out at 1 ± 0.013.

For TACTTTGGGA, the switch fluorescence ratio was 0.98 ± 0.043.

TACTTTTTAG: the switch fluorescence ratio stood at 1.02 ± 0.029.

With TAGAAAAATG, the switch fluorescence ratio came out at 0.991 ± 0.029.

For TAGAAAATGG, the switch fluorescence ratio stood at 1 ± 0.029.

For the sequence TAGAAAATTT, the switch fluorescence ratio is 1 ± 0.022.

On to TAGAAACACT, for which the switch fluorescence ratio was 1.05 ± 0.02.

TAGAAAGGCC: the switch fluorescence ratio was determined as 1.03 ± 0.037.

With TAGAAAGGGA, the switch fluorescence ratio is 1.02 ± 0.039.

TAGAACAAAA: the switch fluorescence ratio stood at 0.99 ± 0.015.

Regarding TAGAAGGCTT, the switch fluorescence ratio is 0.9989 ± 0.0076.

Consider TAGAAGGTTC, for which the switch fluorescence ratio was found to be 1.17 ± 0.29.
